Reference: patent publication US20230365641A1

Key:
[1] = target: PD-1 (antigen of the ELISA and of the in vitro affinity measurement) (UniProt Q15116); assay: ELISA; set-up: Bmax: unit not given here
hPD1-mFc (human) = assay: kinetic binding table: huPDL1-hFc captured as ligand (capture level 53.4 RU), hPD1-mFc as sample; method not given
Sequence of hPD1-mFc (human) (Q15116 25-170): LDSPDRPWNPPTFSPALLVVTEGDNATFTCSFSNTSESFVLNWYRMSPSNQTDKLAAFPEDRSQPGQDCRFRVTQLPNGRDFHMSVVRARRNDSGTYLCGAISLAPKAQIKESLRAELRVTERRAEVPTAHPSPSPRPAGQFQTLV

Sequence of PD-1 (antigen of the ELISA and of the in vitro affinity measurement) (Q15116 25-167 limits assumed): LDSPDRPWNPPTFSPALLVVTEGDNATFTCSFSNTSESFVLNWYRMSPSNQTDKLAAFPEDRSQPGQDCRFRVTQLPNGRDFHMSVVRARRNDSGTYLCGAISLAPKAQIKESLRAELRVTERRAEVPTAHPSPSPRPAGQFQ

Bmax [1]	Kd [1]	Kd (hPD1-mFc (human))	koff (hPD1-mFc (human))	kon (hPD1-mFc (human))	Substance
1.37	0.32 nM	–	–	–	XR034 (Pembro IgG) (antibody)
–	–	74.1 nM	0.025 s⁻¹	338000 M⁻¹ s⁻¹	huPDL1-hFc (from UniProt Q9NZQ7) (Fc fusion)
